From article PMC10786891, “Massively parallel profiling of RNA-targeting CRISPR-Cas13d”
Changes are numbered by the printed parent chain. In names and notes the source's numbering stands.

T1: EsCas13d, nuclease-dead (Eubacterium siraeum, UniProt B0MS50, R295A;H300A;R849A;H854A)
T1 sequence: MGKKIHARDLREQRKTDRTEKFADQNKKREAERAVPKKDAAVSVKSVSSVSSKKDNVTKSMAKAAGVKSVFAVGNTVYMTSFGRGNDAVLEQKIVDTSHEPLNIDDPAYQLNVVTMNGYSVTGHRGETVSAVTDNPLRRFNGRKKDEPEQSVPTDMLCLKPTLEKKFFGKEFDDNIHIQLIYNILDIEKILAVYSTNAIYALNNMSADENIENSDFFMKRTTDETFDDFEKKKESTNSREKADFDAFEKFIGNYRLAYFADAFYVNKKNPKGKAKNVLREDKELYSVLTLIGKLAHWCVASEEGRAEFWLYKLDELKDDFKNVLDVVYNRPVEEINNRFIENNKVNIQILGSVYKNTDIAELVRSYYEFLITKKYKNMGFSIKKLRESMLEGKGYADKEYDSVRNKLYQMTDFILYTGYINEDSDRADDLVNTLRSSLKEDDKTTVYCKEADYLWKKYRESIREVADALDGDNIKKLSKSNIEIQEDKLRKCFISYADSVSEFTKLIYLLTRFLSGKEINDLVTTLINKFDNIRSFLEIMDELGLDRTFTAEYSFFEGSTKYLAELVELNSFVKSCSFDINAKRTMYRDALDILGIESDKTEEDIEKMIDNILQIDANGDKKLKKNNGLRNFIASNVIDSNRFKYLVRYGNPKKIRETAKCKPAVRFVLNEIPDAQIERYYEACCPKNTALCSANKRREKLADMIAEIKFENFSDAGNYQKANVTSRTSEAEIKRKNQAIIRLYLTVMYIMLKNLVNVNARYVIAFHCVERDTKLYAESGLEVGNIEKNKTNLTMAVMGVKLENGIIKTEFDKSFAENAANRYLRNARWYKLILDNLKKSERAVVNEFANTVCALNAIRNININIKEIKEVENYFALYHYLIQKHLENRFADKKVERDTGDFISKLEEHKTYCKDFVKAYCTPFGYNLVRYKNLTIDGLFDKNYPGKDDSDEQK

B1: target 1 U10G,A16G (mixed)
RNA 1: CACCCGUGCAAAAAUGCAGGGGUCUAAAACUGAGCGGAUAACCUCUCUAUGG
RNA 2: GGGAAUGGAUCCACAUCUACGAAUUCGUACCAUAGGGAGGUGAUCCGCUCACCGAGAUCGGAAGAGCACACGU
B2: target 1 C2U,C6U (mixed)
RNA 1: B1 RNA 1
RNA 2: B1 RNA 2 with G36A, G42U, C46U, C50U
B3: target 1 del12,del13 (mixed)
RNA 1: B1 RNA 1
RNA 2: GGGAAUGGAUCCACAUCUACGAAUUCGUACCAUAGAGAUUAUCCGCUCACCGAGAUCGGAAGAGCACACGU
B4: target 1 insA 3' of 22,insC 3' of 12 (mixed)
RNA 1: B1 RNA 1
RNA 2: GGGAAUGGAUCCACAUCUACGAAUUCGUACACAUAGAGAGGCUUAUCCGCUCACCGAGAUCGGAAGAGCACACGU
B5: target 1 A1U,A16C (mixed)
RNA 1: B1 RNA 1
RNA 2: B1 RNA 2 with G36C, G42U, A51U
B6: target 1 A1U,C22A (mixed)
RNA 1: B1 RNA 1
RNA 2: B1 RNA 2 with C30A, G36A, G42U, A51U
B7: target 1 A16U,C21U (mixed)
RNA 1: B1 RNA 1
RNA 2: B1 RNA 2 with C31U, G36U, G42U
B8: target 1 complement block 4-8 (mixed)
RNA 1: B1 RNA 1
RNA 2: B1 RNA 2 with G36A, G42U, U44A, C45G, C46G, G47C, C48G
B9: target 1 C4G,C22A (mixed)
RNA 1: B1 RNA 1
RNA 2: B1 RNA 2 with C30A, G36A, G42U, C48G
B10: target 1 insA 3' of 22,insG 3' of 18 (mixed)
RNA 1: B1 RNA 1
RNA 2: B4 RNA 2 with A37G, G38A, A39G, G40A, C42G
B11: target 1 insA 3' of 12,insU 3' of 6 (mixed)
RNA 1: B1 RNA 1
RNA 2: GGGAAUGGAUCCACAUCUACGAAUUCGUACCAUAGAGAGGAUUAUCCUGCUCACCGAGAUCGGAAGAGCACACGU
B12: target 1 U8C,A18C (mixed)
RNA 1: B1 RNA 1
RNA 2: B1 RNA 2 with A34C, G36A, G42U, U44C
B13: target 1 insG 3' of 20,insU 3' of 2 (mixed)
RNA 1: B1 RNA 1
RNA 2: GGGAAUGGAUCCACAUCUACGAAUUCGUACCAGUAGAGAGGUUAUCCGCUCUACCGAGAUCGGAAGAGCACACGU
B14: target 1 insU 3' of 1,insG 3' of 1 (mixed)
RNA 1: B1 RNA 1
RNA 2: GGGAAUGGAUCCACAUCUACGAAUUCGUACCAUAGAGAGGUUAUCCGCUCAUGCCGAGAUCGGAAGAGCACACGU
B15: target 1 insA 3' of 12,insA 3' of 10 (mixed)
RNA 1: B1 RNA 1
RNA 2: B11 RNA 2 with U45A, C46U, U48C
B16: target 1 U3A,A16G (mixed)
RNA 1: B1 RNA 1
RNA 2: B1 RNA 2 with G42U, U49A
B17: target 1 insG 3' of 22,insG 3' of 1 (mixed)
RNA 1: B1 RNA 1
RNA 2: B13 RNA 2 with C31G, A32C, G33A, U52A, A53G
B18: target 1 U3A,C4G (mixed)
RNA 1: B1 RNA 1
RNA 2: B1 RNA 2 with G36A, G42U, C48G, U49A
B19: target 1 A16C (mixed)
RNA 1: B1 RNA 1
RNA 2: B1 RNA 2 with G36C, G42U
B20: target 1 C2A,U8G (mixed)
RNA 1: B1 RNA 1
RNA 2: B1 RNA 2 with G36A, G42U, U44G, C50A
B21: target 1 insU 3' of 17,insC 3' of 17 (mixed)
RNA 1: B1 RNA 1
RNA 2: B11 RNA 2 with A36U, G37C, G40A, A41G, U42G, A44U, U45A, C46U, U48C
B22: target 1 G12U,U19A (mixed)
RNA 1: B1 RNA 1
RNA 2: B1 RNA 2 with U33A, G36A, G40U, G42U
B23: target 1 insU 3' of 1,insC 3' of 1 (mixed)
RNA 1: B1 RNA 1
RNA 2: B14 RNA 2 with G53C
B24: target 1 G12A,A14G (mixed)
RNA 1: B1 RNA 1
RNA 2: B1 RNA 2 with G36A, A38G, G40A, G42U
B25: target 1 insG 3' of 22,insU 3' of 1 (mixed)
RNA 1: B1 RNA 1
RNA 2: B13 RNA 2 with C31G, A32C, G33A, U52A, A53U
B26: target 1 A1G,A16C (mixed)
RNA 1: B1 RNA 1
RNA 2: B1 RNA 2 with G36C, G42U, A51G
B27: target 1 G17U,C21A (mixed)
RNA 1: B1 RNA 1
RNA 2: B1 RNA 2 with C31A, G35U, G36A, G42U
B28: target 1 C22A (mixed)
RNA 1: B1 RNA 1
RNA 2: B1 RNA 2 with C30A, G36A, G42U
B29: target 1 insC 3' of 22,insA 3' of 21 (mixed)
RNA 1: B1 RNA 1
RNA 2: B4 RNA 2 with A31C, U34A, A35U, G36A, A37G, G38A, A39G, G40A, C42G
B30: target 1 C6A,G15A (mixed)
RNA 1: B1 RNA 1
RNA 2: B1 RNA 2 with G36A, G37A, G42U, C46A
B31: target 1 insU 3' of 22,insA 3' of 8 (mixed)
RNA 1: B1 RNA 1
RNA 2: B4 RNA 2 with A31U, C42U, U44A, A45U, U46A
B32: target 1 insA 3' of 22,insC 3' of 11 (mixed)
RNA 1: B1 RNA 1
RNA 2: B4 RNA 2 with C42U, U43C
B33: target 1 insU 3' of 17,insU 3' of 9 (mixed)
RNA 1: B1 RNA 1
RNA 2: B11 RNA 2 with A36U, G37A, A38G, G39A, A41G, C46U, U48C
B34: target 1 U8C,A16C (mixed)
RNA 1: B1 RNA 1
RNA 2: B1 RNA 2 with G36C, G42U, U44C

Target: T1, EsCas13d, nuclease-dead
Assay: crRNA (strand 1, pre-loaded); Mg2+; 40 mM Tris-HCl pH 7.5, 150 mM NaCl, 6 mM MgCl2, 1 mM DTT, 0.1% Tween-20, 0.2 mg/ml BSA; 25 C; 10 min per concentration, then washed
Conditions: tags: His6-TwinStrep-SUMO cleaved; N-terminal SNAP kept (SNAP-Surface 488); label: 3' end held by stalled T7 RNA polymerase

Binder | Kd [nM]
B1 | 42.2 ± 3.5
B2 | 8.3 ± 0.6
B3 | 18.6 ± 1.8
B4 | 20.1 ± 1.2
B5 | 37 ± 4
B6 | 12.1 ± 0.9
B7 | 11.7 ± 1.4
B8 | 9.57 ± 0.27
B9 | 5.9 ± 0.4
B10 | 59 ± 13
B11 | 64 ± 14
B12 | 89 ± 9
B13 | ~60
B14 | 11.6 ± 1
B15 | 32 ± 7
B16 | 34.3 ± 2.9
B17 | 26.6 ± 2.1

Binder | Kd [nM]
B18 | 5.74 ± 0.33
B19 | 31 ± 2.7
B20 | 19.4 ± 1.3
B21 | 36 ± 5
B22 | 52 ± 10
B23 | 11.6 ± 0.6
B24 | 41 ± 6
B25 | 31 ± 4
B26 | 36 ± 4
B27 | 40 ± 7
B28 | 13.5 ± 0.7
B29 | 20.7 ± 2.3
B30 | 11.9 ± 0.5
B31 | 58 ± 5
B32 | 60 ± 19
B33 | 40 ± 8
B34 | 77 ± 5
